Measured values from patent publication EP4729537A1, “B-LACTAMASE-INHIBITING ANTIBODY AND USE THEREOF IN THE TREATMENT AND/OR PREVENTION OF INFECTIONS CAUSED BY B-LACTAMASE-PRODUCING BACTERIA” (priority 2023, dated 2024).
Where “and” joins values, the source holds several entries; their conditions need not be identical. Identical values can stand only once.

Experiments:
[1] = test system: O=C(Cc1cccs1)N[C@@H]1C(=O)N2C(C(=O)O)=C(/C=C/c3ccc([N+](=O)[O-])cc3[N+](=O)[O-])CS[C@H]12; assay: nitrocefin hydrolysis assay with E. coli BL21(DE3) cells expressing the β-lactamase in the periplasm; format: cell-based, Klebsiella pneumoniae; conditions: other: E. coli cells, control without antibody (controls of the B2 and B5 runs)
Experimental: (§1) An in vivo assay was conducted to test the inhibitory capacity of four β-lactamases from three resistant microorganisms: BlaMab from Mycobacterium abscessus, KPC-2 (UNIPROT Q9F663) and OXA-48 (UNIPROT Q6XEC0) from Klebsiella pneumoniae, and VIM-2 (UNIPROT B8QIQ9) from Pseudomonas aeruginosa. The assay utilized BL21(DE3) strain cells of Escherichia coli transformed with the expression vector pET26b(+) along with the gene sequence of each β-lactamase. Cells successfully transformed with the vector and insert were selected using a Kanamycin resistance gene (KanR) present in the vector. […] Additionally, the pET26b(+) vector has an IPTG-inducible promoter to activate the translation of the corresponding β-lactamase. The plasmid also includes a pelB export signal directing the β-lactamase to the periplasmic space of the bacteria for the inhibition assay with Ndis (nanobodies, single-domain antibodies).
(§2) This compound changes color from yellow to red when hydrolyzed by β-lactamase, which can be quantified by measuring absorbance at 490nm.

[2] = test system: O=C(Cc1cccs1)N[C@@H]1C(=O)N2C(C(=O)O)=C(/C=C/c3ccc([N+](=O)[O-])cc3[N+](=O)[O-])CS[C@H]12; assay: as above; format: cell-based, Pseudomonas aeruginosa; conditions: other: E. coli cells, control without antibody (controls of the B2 and B5 runs)
Experimental: as §1, §2

Substance	Km [1] [µM]	Km [2]
OXA-48 (UNIPROT Q6XEC0) from Klebsiella pneumoniae (Klebsiella pneumoniae)	4.48	–
VIM-2 (UNIPROT B8QIQ9) from Pseudomonas aeruginosa (Pseudomonas aeruginosa)	–	4.35 µM and 6.75 µM
